Data taken from article PMC11495376.

Key:
Settings in all cases: EMSA per cited procedure (ref 27); buffer, salt, pH and temperature not given in the material
[1] = test system: T1, TarR (Bacillus velezensis FZB42), ORF:a9b72c09; test: EMSA
T1 sequence: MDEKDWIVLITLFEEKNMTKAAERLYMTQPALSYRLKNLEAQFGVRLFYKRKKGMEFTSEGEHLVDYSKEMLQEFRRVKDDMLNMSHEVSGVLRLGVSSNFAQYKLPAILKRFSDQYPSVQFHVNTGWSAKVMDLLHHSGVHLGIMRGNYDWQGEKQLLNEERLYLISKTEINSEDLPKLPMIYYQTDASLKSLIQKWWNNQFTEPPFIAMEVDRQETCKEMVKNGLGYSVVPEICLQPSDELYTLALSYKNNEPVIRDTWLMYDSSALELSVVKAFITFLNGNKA

[2] = test system: T2, TarRN1-91 (Bacillus velezensis FZB42), ORF:46dabd2b; test: EMSA?
T2 sequence: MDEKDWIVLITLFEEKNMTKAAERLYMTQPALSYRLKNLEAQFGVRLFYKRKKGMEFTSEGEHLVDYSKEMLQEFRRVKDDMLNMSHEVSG

[3] = test system: T1, TarR (Bacillus velezensis FZB42), ORF:a9b72c09; test: DNase I footprinting

Sequence | binding [1] | binding [2] | binding [3]
AGCGAAAATATTTTTTAAAAAAGTATTGACCTAGCAAACTGAAAATGTTATGATTAAGAGGTCGCTTCGAGAGAAGCAACAAAGTTCTTTGAAAACTAAACAAGACAAAACGTACCTGTTAATTCAAAGTTTTAAATAAATCGCACAGCGATGTGCGTAGTCAGTCAAACTAC (double strand) [P16S] | no binding |  | 
GCTGTCTCATCCTTACATCATTTTGTGTGGATAAAAAGGTACCGGTCCCTTTGGAAAATATCGTATGATAAATAAGGATTATAAGTAAAACATATAATTTTTATAAAGTTGAATAAAAAAAATTTATAATAAGAGAAAATTTTATAGCAGAAAAATATTTTGGGGGATTTCAT (double strand) [Ptar] | binds | binds | binds
